What was measured:
[1] = target: T1, biotinylated goat anti-human kappa light chain; assay: ELISA, positive control
T1 construct: positive control of the ELISA
How it was run: (§1)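 ELISA measured binding of ACVR2A-specific monoclonal antibodies to human and mouse ACVR2A. Biotinylated goat anti-human kappa light chain served as positive control and human Fc as negative control.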

[2] = target: T2, human ACVR2A (human, UniProt P27037 20-135, limits assumed); assay: ELISA
T2 construct: coated antigen of the initial ELISA; also called activin receptor, type II A
How it was run: as §1

[3] = target: T3, mouse ACVR2A (mouse, UniProt P27038 20-135, limits assumed); assay: ELISA
T3 construct: coated antigen of the initial ELISA
How it was run: as §1
Further: test concentration or dose not given here.

T3 sequence (P27038 20-135 limits assumed): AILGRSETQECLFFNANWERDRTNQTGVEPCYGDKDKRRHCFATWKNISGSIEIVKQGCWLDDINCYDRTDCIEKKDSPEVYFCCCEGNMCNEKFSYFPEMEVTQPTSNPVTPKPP
T2 sequence (P27037 20-135 limits assumed): as the sequence (P27038 20-135 limits assumed) above, with R20K, I73V counted along it

Binder	optical density [1]	optical density [2]	optical density [3]
374_D06 (antibody, V domains shown, Group III) VH: EVQLLESGGGLVQPGGSLRLSCAASGFTFSSYSMNWVRQAPGKGLEWVSGINYNGGYTSYADSVKGRFTISRDNSKNTLYLQMNSLRAEDTAVYYCARGANWHDTALDYWGQGTLVTVSS VL: DIQMTQSPSSLSASVGDRVTITCRASQSILSYVNWYQQKPGKAPKLVIYAATSRASGVPSRFSGSGSGTDFTLTISSLQPEDFATYYCQQSYDSPLTFGGGTKVEIK	3.12 OD	3.78 OD	3.67 OD
374_E10 (antibody, V domains shown, Group III) VH: EVQLLESGGGLVQPGGSLRLSCAASGFTFSSYSMNWVRQAPGKGLEWVSGINYNGGYKSYADSVKGRFTISRDNSKNTLYLQMNSLRAEDTAVYYCARGANWHDTALDYWGQGTLVTVSS VL: DIQMTQSPSSLSASVGDRVTITCRASQSILSYLNWYQQKPGKAPKLLIYAATSRHSGVPSRFSGSGSGTDFTLTISSLQPEDFATYYCQQSYDSPLTFGGGTKVEIK	3.38 OD	3.74 OD	3.77 OD
374_G11 (antibody, V domains shown, Group III) VH: EVQLLESGGGLVQPGGSLRLSCAASGFTFSDYSMNWVRQAPGKGLEWVSGINYNGGYTSYADSVKGRFTISRDNSKNTLYLQMNSLRAEDTAVYYCARGANWHDTALDYWGQGTLVTVSS VL: DIQMTQSPSSLSASVGDRVTITCRASQSIISYVNWYQQKPGKAPKLVIYAATSLASGVPSRFSGSGSGTDFTLTISSLQPEDFATYYCQQSYDSPLTFGGGTKVEIK	3.25 OD	3.65 OD	3.6 OD
375_A01 (antibody, V domains shown, Group III) VH: EVQLLESGGGLVQPGGSLRLSCAASGFTFDSYSMNWVRQAPGKGLEWVAGINYNGGYTSYADSVKGRFTISRDNSKNTLYLQMNSLRAEDTAVYYCARGANWHDTALDYWGQGTLVTVSS VL: DIQMTQSPSSLSASVGDRVTITCRASQSILSYLNWYQQKPGKAPKLVIYAATSRASGVPSRFSGSGSGTDFTLTISSLQPEDFATYYCQQSYNTPLTFGGGTKVEIK	2.91 OD	3.28 OD	3.68 OD
374_F06 (antibody, V domains shown, Group III) VH: EVQLLESGGGLVQPGGSLRLSCAASGFTFSSYSMNWVRQAPGKGLEWVSGINYNGGYTSYADSVKGRFTISRDNSKNTLYLQMNSLRAEDTAVYYCARGANWHDTALDYWGQGTLVTVSS VL: DIQMTQSPSSLSASVGDRVTITCRASQSIISYVNWYQQKPGKAPKLVIYAATSLHSGVPSRFSGSGSGTDFTLTISSLQPEDFATYYCQQSYSTPLTFGGGTKVEIK	3.18 OD	3.72 OD	3.7 OD
374_H11 (antibody, V domains shown, Group III) VH: EVQLLESGGGLVQPGGSLRLSCAASGFTFSSYSMNWVRQAPGKGLEWVSGINYNGGYTSYADSVKGRFTISRDNSKNTLYLQMNSLRAEDTAVYYCARGANWHDTALDYWGQGTLVTVSS VL: DIQMTQSPSSLSASVGDRVTITCRASQSIISYVNWYQQKPGKAPKLVIYAATSLHSGVPSRFSGSGSGTDFTLTISSLQPEDFATYYCQQSYSNPLTFGGGTKVEIK	3.15 OD	3.27 OD	3.29 OD
374_G09 (antibody, V domains shown, Group III) VH: EVQLLESGGGLVQPGGSLRLSCAASGFTFSSYSMNWVRQAPGKGLEWVAGINYNGGYKGYADSVKGRFTISRDNSKNTLYLQMNSLRAEDTAVYYCARGANWHDTHLDYWGQGTLVTVSS VL: DIQMTQSPSSLSASVGDRVTITCRASQSIVRYLNWYQQKPGKAPKLVIYAATSLASGVPSRFSGSGSGTDFTLTISSLQPEDFATYYCQQSYELPLTFGGGTKVEIK	3.26 OD	3.66 OD	3.6 OD
374_F07 (antibody, V domains shown, Group III) VH: EVQLLESGGGLVQPGGSLRLSCAASGFTFDSYSMNWVRQAPGKGLEWVASINYNGGYTGYADSVKGRFTISRDNSKNTLYLQMNSLRAEDTAVYYCARGANWHDTHLDYWGQGTLVTVSS VL: DIQMTQSPSSLSASVGDRVTITCRASQSILSYLNWYQQKPGKAPKLVIYAVTSLASGVPSRFSGSGSGTDFTLTISSLQPEDFATYYCQQSYESPLTFGGGTKVEIK	3.21 OD	3.47 OD	3.54 OD
375_A07 (antibody, V domains shown, Group III) VH: EVQLLESGGGLVQPGGSLRLSCAASGFTFDSYSMNWVRQAPGKGLEWVSSINYNSGYTGYADSVKGRFTISRDNSKNTLYLQMNSLRAEDTAVYYCARGANWHDTHLDYWGQGTLVTVSS VL: DIQMTQSPSSLSASVGDRVTITCRASQSILTYLNWYQQKPGKAPKLLIYAATSRASGVPSRFSGSGSGTDFTLTISSLQPEDFATYYCQQSYDTPLTFGGGTKVEIK	3.11 OD	3.58 OD	3.64 OD
374_D10 (antibody, V domains shown, Group III) VH: EVQLLESGGGLVQPGGSLRLSCAASGFTFSSYGMHWVRQAPGKGLEWVASINYNGGYTSYADSVKGRFTISRDNSKNTLYLQMNSLRAEDTAVYYCARGANWHDTHLDYWGQGTLVTVSS VL: DIQMTQSPSSLSASVGDRVTITCRASQSILTYVNWYQQKPGKAPKLLIYAATSRASGVPSRFSGSGSGTDFTLTISSLQPEDFATYYCQQSYDNPLTFGGGTKVEIK	3.27 OD	3.56 OD	3.64 OD
374_F08 (antibody, V domains shown, Group III) VH: EVQLLESGGGLVQPGGSLRLSCAASGFTFDSYSMNWVRQAPGKGLEWVSGINYNGGYKSYADSVKGRFTISRDNSKNTLYLQMNSLRAEDTAVYYCARGANWHDTALDYWGQGTLVTVSS VL: DIQMTQSPSSLSASVGDRVTITCRASQSILTYVNWYQQKPGKAPKLVIYAVTSRASGVPSRFSGSGSGTDFTLTISSLQPEDFATYYCQQSYDTPLTFGGGTKVEIK	3.18 OD	3.67 OD	3.68 OD
374_G08 (antibody, V domains shown, Group III) VH: EVQLLESGGGLVQPGGSLRLSCAASGFTFDSYSMNWVRQAPGKGLEWVSGINYNGGYTSYADSVKGRFTISRDNSKNTLYLQMNSLRAEDTAVYYCARGANWHDTALDYWGQGTLVTVSS VL: DIQMTQSPSSLSASVGDRVTITCRASQSILTYVNWYQQKPGKAPKLVIYAATSRASGVPSRFSGSGSGTDFTLTISSLQPEDFATYYCQQSYDSPLTFGGGTKVEIK	3.21 OD	3.71 OD	3.7 OD
374_D07 (antibody, V domains shown, Group III) VH: EVQLLESGGGLVQPGGSLRLSCAASGFTFDSYSMNWVRQAPGKGLEWVSGINYNSGYKSYADSVKGRFTISRDNSKNTLYLQMNSLRAEDTAVYYCARGANWHDTALDYWGQGTLVTVSS VL: DIQMTQSPSSLSASVGDRVTITCRASQSIVSYLNWYQQKPGKAPKLVIYAATSLASGVPSRFSGSGSGTDFTLTISSLQPEDFATYYCQQSYNSPLTFGGGTKVEIK	3.26 OD	3.71 OD	3.68 OD
374_E12 (antibody, V domains shown, Group III) VH: EVQLLESGGGLVQPGGSLRLSCAASGFTFSSYSMNWVRQAPGKGLEWVSGINYNGGYKSYADSVKGRFTISRDNSKNTLYLQMNSLRAEDTAVYYCARGANWHDTALDYWGQGTLVTVSS VL: DIQMTQSPSSLSASVGDRVTITCRASQSILSYLNWYQQKPGKAPKLVIYAATSRASGVPSRFSGSGSGTDFTLTISSLQPEDFATYYCQQSYDNPLTFGGGTKVEIK	3.29 OD	3.61 OD	3.28 OD
374_H01 (antibody, V domains shown, Group III) VH: EVQLLESGGGLVQPGGSLRLSCAASGFTFDSYSMNWVRQAPGKGLEWVAGINYNGGYTSYADSVKGRFTISRDNSKNTLYLQMNSLRAEDTAVYYCARGANWHDTHLDYWGQGTLVTVSS VL: DIQMTQSPSSLSASVGDRVTITCRASQSILSYLNWYQQKPGKAPKLVIYAATSLASGVPSRFSGSGSGTDFTLTISSLQPEDFATYYCQQSYENPLTFGGGTKVEIK	3.07 OD	3.08 OD	3.26 OD
374_G10 (antibody, V domains shown, Group III) VH: EVQLLESGGGLVQPGGSLRLSCAASGFTFSSYSMNWVRQAPGKGLEWVSSINYNSGYTSYADSVKGRFTISRDNSKNTLYLQMNSLRAEDTAVYYCARGANWHDTHLDYWGQGTLVTVSS VL: DIQMTQSPSSLSASVGDRVTITCRASQSIVSYLNWYQQKPGKAPKLVIYAVTSRASGVPSRFSGSGSGTDFTLTISSLQPEDFATYYCQQSYDSPLTFGGGTKVEIK	3.23 OD	3.68 OD	3.74 OD
374_G03 (antibody, V domains shown, Group III) VH: EVQLLESGGGLVQPGGSLRLSCAASGFTFSDYSMNWVRQAPGKGLEWVSGINYNGGYTSYADSVKGRFTISRDNSKNTLYLQMNSLRAEDTAVYYCARGANWHDTALDYWGQGTLVTVSS VL: DIQMTQSPSSLSASVGDRVTITCRASQSISSYLNWYQQKPGKAPKLVIYAATSRASGVPSRFSGSGSGTDFTLTISSLQPEDFATYYCQQSDDTPLTFGGGTKVEIK	3.22 OD	3.79 OD	3.64 OD
375_A12 (antibody, V domains shown, Group III) VH: EVQLLESGGGLVQPGGSLRLSCAASGFTFSSYSMNWVRQAPGKGLEWVSGINYNSGYKSYADSVKGRFTISRDNSKNTLYLQMNSLRAEDTAVYYCARGANWHDTALDYWGQGTLVTVSS VL: DIQMTQSPSSLSASVGDRVTITCRASQSILSYLNWYQQKPGKAPKLVIYAVTSRASGVPSRFSGSGSGTDFTLTISSLQPEDFATYYCQQSYETPLTFGGGTKVEIK	3.14 OD	3.66 OD	3.35 OD
375_A08 (antibody, V domains shown, Group III) VH: EVQLLESGGGLVQPGGSLRLSCAASGFTFSSYSMNWVRQAPGKGLEWVAGINYNGGYTGYADSVKGRFTISRDNSKNTLYLQMNSLRAEDTAVYYCARGANWHDTALDYWGQGTLVTVSS VL: DIQMTQSPSSLSASVGDRVTITCRASQSIVTYLNWYQQKPGKAPKLLIYAATSRASGVPSRFSGSGSGTDFTLTISSLQPEDFATYYCQQSYESPLTFGGGTKVEIK	3.14 OD	3.68 OD	3.69 OD

Source: patent US20210380703A1 (RIGEL PHARMACEUTICALS, published 2021)
